± gives the standard deviation of the averaged measurements.
Assay: total protein half-life in vivo (active degradation + dilution); higher = more stable protein
[1] = E. coli NCM3722 delta-clpP delta-lon delta-hslV, growth: N-lim chemostat, doubling time 6 h
[2] = E. coli NCM3722 delta-clpP, growth: N-lim chemostat, doubling time 6 h
[3] = E. coli NCM3722 delta-hslV, growth: N-lim chemostat, doubling time 6 h
[4] = E. coli NCM3722 delta-lon, growth: N-lim chemostat, doubling time 6 h
[5] = E. coli NCM3722 delta-smpB, growth: N-lim chemostat, doubling time 6 h
[6] = wild type E. coli NCM3722, growth: C-lim chemostat, doubling time 3 h
[7] = wild type E. coli NCM3722, growth: C-lim chemostat, doubling time 6 h
[8] = wild type E. coli NCM3722, growth: N-lim chemostat, doubling time 6 h
[9] = wild type E. coli NCM3722, growth: N-lim chemostat, doubling time 12 h
[10] = wild type E. coli NCM3722, growth: P-lim chemostat, doubling time 6 h
[11] = wild type E. coli NCM3722, growth: P-lim chemostat, doubling time 12 h
[12] = wild type E. coli NCM3722, growth: C-lim chemostat, doubling time 12 h

| Sequence | total protein half-life in vivo [1] | total protein half-life in vivo [2] | total protein half-life in vivo [3] | total protein half-life in vivo [4] | total protein half-life in vivo [5] | total protein half-life in vivo [6] | total protein half-life in vivo [7] | total protein half-life in vivo [8] | total protein half-life in vivo [9] | total protein half-life in vivo [10] | total protein half-life in vivo [11] | total protein half-life in vivo [12] |
| --- | --- | --- | --- | --- | --- | --- | --- | --- | --- | --- | --- | --- |
| MELKDYYAIMGVKPTDDLKTIKTAYRRLARKYHPDVSKEPDAEARFKEVAEAWEVLSDEQRRAEYDQMWQHRNDPQFNRQFHHGDGQSFNAEDFDDIFSSIFGQHARQSRQRPATRGHDIEIEVAVFLEETLTEHKRTISYNLPVYNAFGMIEQEIPKTLNVKIPAGVGNGQRIRLKGQGTPGENGGPNGDLWLVIHIAPHPLFDIVGQDLEIVVPVSPWEAALGAKVTVPTLKESILLTIPPGSQAGQRLRVKGKGLVSKKQTGDLYAVLKIVMPPKPDENTAALWQQLADAQSSFDPRKDWGKA | 6.73 ± 1.4 h | 5.61 ± 0.13 h | 5.26 ± 0.1 h | 6.28 ± 0.45 h | 4.99 ± 0.26 h | 3.32 ± 0.26 h | 5.86 ± 1.2 h | 4.87 ± 0.37 h | 9.91 ± 2.2 h | 5.76 ± 0.35 h | 12.8 ± 0.6 h |  |
| MELKKLMGHISIIPDYRQAWKMEHKLSDILLLTICAVISGAEGWEDIEDFGETHPDFLKQYGDFENGIPVHDTIARVVSCISPAKFHECFINWMRDCHSSDDKDVIAIDGKTLRHSYDKSRRRGAIHVISAFSTMHSLVIGQIKTDEKSNEITAIPELLNMLDIKGKIITTDAMGCQKDIAEKIQKQGGDYLFAVKGNQGRLNKAFEEKFPLKELNNPAHDSYAMSEKSHGREEIRLHIVCDVPDELIDFTFEWKGLKKLCVAVSFRSIIAEQKKELEMTVRYYISSADLTAEKFATAIRNHWHVENKLHWRLDVVMNEDDCKIRRGNAAELFSGIRHIAINILTNDKVFKAGLRRKMRKAAMDRNYLASVLTGSGLS | 6.51 h |  |  |  |  |  |  |  |  |  | 11.9 h |  |
| MELLVLVWRQYRWPFISVMALSLASAALGIGLIAFINQRLIETADTSLLVLPEFLGLLLLLMAVTLGSQLALTTLGHHFVYRLRSEFIKRILDTHVERIEQLGSASLLAGLTSDVRNITIAFVRLPELVQGIILTIGSAAYLWMLSGKMLLVTAIWMAITIWGGFVLVARVYKHMATLRETEDKLYTDFQTVLEGRKELTLNRERAEYVFNNLYIPDAQEYRHHIIRADTFHLSAVNWSNIMMLGAIGLVFWMANSLGWADTNVAATYSLTLLFLRTPLLSAVGALPTLLTAQVAFNKLNKFALAPFKAEFPRPQAFPNWQTLELRNVTFAYQDNAFSVGPINLTIKRGELLFLIGGNGSGKSTLAMLLTGLYQPQSGEILLDGKPVSGEQPEDYRKLFSAVFTDVWLFDQLLGPEGKPANPQLVEKWLAQLKMAHKLELSNGRIVNLKLSKGQKKRVALLLALAEERDIILLDEWAADQDPHFRREFYQVLLPLMQEMGKTIFAISHDDHYFIHADRLLEMRNGQLSELTGEERDAASRDAVARTA |  | 5.55 ± 0.68 h | 2.75 h |  | 3.49 ± 2.1 h | 3.11 ± 0.83 h |  | 3.39 h | 6.04 h |  | 6.15 h | 8.87 h |
| MELRHLRYFVAVAQALNFTRAAEKLHTSQPSLSSQIRDLENCVGVPLLVRDKRKVALTAAGECFLQDALAILEQAENAKLRARKIVQEDRQLTIGFVPSAEVNLLPKVLPMFRLRQPDTLIELVSLITTQQEEKIRRGELDVGLMRHPVYSPEIDYLELFDEPLVVVLPVDHPLAHEKEITAAQLDGVNFVSTDPVYSGSLAPIVKAWFAQENSQPNIVQVATNILVTMNLVGMGLGVTLIPGYMNNFNTGQVVFRPIAGNVPSIALLMAWKKGEMKPALRDFIAIVQERLASVTA | 5.58 ± 0.39 h |  |  |  |  | 0.275 h |  |  |  |  |  |  |
| MELYLDTANVAEVERLARIFPIAGVTTNPSIIAASKESIWEVLPRLQKAIGDEGILFAQTMSRDAQGMVEEAKRLRDAIPGIVVKIPVTSEGLAAIKILKKEGITTLGTAVYSAAQGLLAALAGAKYVAPYVNRVDAQGGDGIRTVQELQTLLEMHAPESMVLAASFKTPRQALDCLLAGCESITLPLDVAQQMLNTPAVESAIEKFEHDWNAAFGTTHL | 4.61 ± 1.5 h |  |  | 3.3 h | 2.84 h | 2.91 ± 0.4 h | 3.9 ± 0.8 h |  |  | 5.37 h | 9.74 ± 0.17 h | 9.6 ± 0.48 h |
| MEMTSAFTLNVRLDNIAVITIDVPGEKMNTLKAEFASQVRAIIKQLRENKELRGVVFVSAKPDNFIAGADINMIGNCKTAQEAEALARQGQQLMAEIHALPIQVIAAIHGACLGGGLELALACHGRVCTDDPKTVLGLPEVQLGLLPGSGGTQRLPRLIGVSTALEMILTGKQLRAKQALKLGLVDDVVPHSILLEAAVELAKKERPSSRPLPVRERILAGPLGRALLFKMVGKKTEHKTQGNYPATERILEVVETGLAQGTSSGYDAEARAFGELAMTPQSQALRSIFFASTDVKKDPGSDAPPAPLNSVGILGGGLMGGGIAYVTACKAGIPVRIKDINPQGINHALKYSWDQLEGKVRRRHLKASERDKQLALISGTTDYRGFAHRDLIIEAVFENLELKQQMVAEVEQNCAAHTIFASNTSSLPIGDIAAHATRPEQVIGLHFFSPVEKMPLVEIIPHAGTSAQTIATTVKLAKKQGKTPIVVRDKAGFYVNRILAPYINEAIRMLTQGERVEHIDAALVKFGFPVGPIQLLDEVGIDTGTKIIPVLEAAYGERFSAPANVVSSILNDDRKGRKNGRGFYLYGQKGRKSKKQVDPAIYPLIGTQGQGRISAPQVAERCVMLMLNEAVRCVDEQVIRSVRDGDIGAVFGIGFPPFLGGPFRYIDSLGAGEVVAIMQRLATQYGSRFTPCERLVEMGARGESFWKTTATDLQ | 6.37 ± 0.25 h | 6.427 ± 0.028 h | 6.27 ± 0.24 h | 6.41 ± 0.81 h | 5.89 ± 0.35 h | 2.94 ± 0.22 h | 6.2 ± 0.16 h | 5.986 ± 0.037 h | 13.5 ± 2.2 h | 6.1 ± 0.18 h | 12.3 ± 0.21 h | 12 ± 0.15 h |
| MENAKMNSLIAQYPLVKDLVALKETTWFNPGTTSLAEGLPYVGLTEQDVQDAHARLSRFAPYLAKAFPETAATGGIIESELVAIPAMQKRLEKEYQQPISGQLLLKKDSHLPISGSIKARGGIYEVLAHAEKLALEAGLLTLDDDYSKLLSPEFKQFFSQYSIAVGSTGNLGLSIGIMSARIGFKVTVHMSADARAWKKAKLRSHGVTVVEYEQDYGVAVEEGRKAAQSDPNCFFIDDENSRTLFLGYSVAGQRLKAQFAQQGRIVDADNPLFVYLPCGVGGGPGGVAFGLKLAFGDHVHCFFAEPTHSPCMLLGVHTGLHDQISVQDIGIDNLTAADGLAVGRASGFVGRAMERLLDGFYTLSDQTMYDMLGWLAQEEGIRLEPSALAGMAGPQRVCASVSYQQMHGFSAEQLRNTTHLVWATGGGMVPEEEMNQYLAKGR | 5.22 ± 0.27 h | 5.27 ± 1.2 h | 4.89 ± 0.1 h | 5.43 ± 0.24 h | 4.517 ± 0.042 h | 3.01 ± 0.033 h |  | 4.91 ± 0.21 h | 7.88 ± 0.44 h | 5.98 ± 0.35 h | 11.2 ± 2.2 h | 10 ± 1.9 h |
| MENKYSRLQISIHWLVFLLVIAAYCAMEFRGFFPRSDRPLINMIHVSCGISILVLMVVRLLLRLKYPTPPIIPKPKPMMTGLAHLGHLVIYLLFIALPVIGLVMMYNRGNPWFAFGLTMPYASEANFERVDSLKSWHETLANLGYFVIGLHAAAALAHHYFWKDNTLLRMMPRKRS [P0ABE5] | 7.28 h | 5.78 h | 6.32 h |  | 5.9 h | 2.81 ± 0.06 h | 5.31 h |  | 10.6 h |  | 11.9 h | 14.8 h |
| MENLARFLSTTLKQLRQQRGWSLSRLAEATGVSKAMLGQIERNESSPTVATLWKIATGLNVPFSTFISPPQSATPSVYDPQQQAMVITSLFPYDPQLCFEHFSIQMASGAISESTPHEKGVIEHVVVIDGQLDLCVDGEWQTLNCGEGVRFAADVTHIYRNGGEQTVHFHSLIHYPRS | 5.69 ± 0.83 h | 4.59 ± 0.28 h | 4.71 ± 0.22 h | 5.58 ± 0.23 h | 5.33 ± 1.1 h | 3.4 ± 0.15 h | 5.27 ± 0.69 h | 4.52 ± 0.93 h | 7.78 ± 0.9 h | 6.27 ± 1.1 h | 9.9 ± 0.44 h | 10.1 ± 0.49 h |

Source: the supplement of paper PMC11246515
